# Laboratory results reported in US20050196758.
# Target: T1, trans-2-butenoyl-ACP (acyl carrier protein carrying the trans-2-butenoyl group), P0A6A8
# T1 chain: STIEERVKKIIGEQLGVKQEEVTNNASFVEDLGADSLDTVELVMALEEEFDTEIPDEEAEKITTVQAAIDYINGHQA
protein,measurement,value
His-tagged FabK (enoyl-ACP reductase II) of Streptococcus pneumoniae (protein) MKTRITELLKIDYPIFQGGMAWVADGDLAGAVSKAGGLGIIGGGNAPKEVVKANIDKIKSLTDKPFGVNIMLLSPFVEDIVDLVIEEGVKVVTTGAGNPSKYMERFHEAGIIVIPVVPSVALAKRMEKIGADAVIAEGMEAGGHIGKLTTMTLVRQVATAISIPVIAAGGIADGEGAAAGFMLGAEAVQVGTRFVVAKESNAHPNYKEKILKARDIDTTISAQHFGHAVRAIKNQLTRDFELAEKDAFKQEDPDLEIFEQMGAGALAKAVVHGDVDGGSVMAGQIAGLVSKEETAEEILKDLYYGAAKKIQEEASRWTGVVRND,"specific activity (enoyl-ACP reductase activity, coupled in vitro assay, butyryl-ACP formation by gel electrophoresis)",66±4 nmole product formed/min/mg FabK
